Measured values from paper PMC5808563.
Where two headings read alike, the source gives them in different places.

Legend:
[1] = biological target: integrin β3 transmembrane-cytoplasmic domain (TM/tail, residues 685-762) embedded in Nanodiscs (UniProt P05106); assay: FRET or BRET
[2] = biological target: integrin β3 transmembrane-cytoplasmic domain (TM/tail, residues 685-762) embedded in Nanodiscs (UniProt P05106); assay: FRET or BRET; remark: listed apart in the source

UniProt P05106, sequence (P05106 711-788): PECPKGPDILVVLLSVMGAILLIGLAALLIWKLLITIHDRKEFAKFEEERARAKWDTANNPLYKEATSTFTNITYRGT

A Kd [1] of 580 nM, a Kd [2] of 740 nM and a fold increase in affinity over 50% DMPS Nanodiscs without the integrin tail [2] of 2 fold were found for “talin-1 head domain (THD) I398C, Uniblue A labelled (from UniProt P26039 1-433) (domain or fragment)” in this work.
